This is an account of results in US20170174769A1 (Regeneron, published 2017).

Experiment [1] concerns the target T1, extracellular domain of human FGFR1c expressed with C-terminal V5 and hexahistidine tags (human, UniProt P11362 22-376).
T1 construct: also called hFGFR1c-V5-6His
T1 sequence: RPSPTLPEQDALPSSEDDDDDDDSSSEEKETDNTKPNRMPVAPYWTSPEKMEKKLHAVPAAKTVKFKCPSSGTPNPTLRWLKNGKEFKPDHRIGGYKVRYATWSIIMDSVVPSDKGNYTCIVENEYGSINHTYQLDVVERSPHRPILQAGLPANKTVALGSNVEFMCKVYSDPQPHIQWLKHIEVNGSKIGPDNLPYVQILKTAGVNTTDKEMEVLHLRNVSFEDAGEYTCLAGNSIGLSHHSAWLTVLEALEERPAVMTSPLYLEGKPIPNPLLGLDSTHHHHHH
As to the kind of experiment: SPR, mAb captured, 37 C. The essentials:
(§1)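 KD values derive from kinetic rate constants obtained by fitting real-time sensorgrams to a 1:1 binding model. Antibodies were held on anti-Fc capture surfaces matched to mouse or human Fc, with tagged receptor domains passed over in HBST, pH 7.4.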

Experiment [2] addresses T2, extracellular domain of human KLB expressed with C-terminal HA and hexahistidine tags (human, UniProt Q86Z14 1-996).
T2 construct: also called hKLB-HA-6His; hKLB-HA-6his
T2 sequence: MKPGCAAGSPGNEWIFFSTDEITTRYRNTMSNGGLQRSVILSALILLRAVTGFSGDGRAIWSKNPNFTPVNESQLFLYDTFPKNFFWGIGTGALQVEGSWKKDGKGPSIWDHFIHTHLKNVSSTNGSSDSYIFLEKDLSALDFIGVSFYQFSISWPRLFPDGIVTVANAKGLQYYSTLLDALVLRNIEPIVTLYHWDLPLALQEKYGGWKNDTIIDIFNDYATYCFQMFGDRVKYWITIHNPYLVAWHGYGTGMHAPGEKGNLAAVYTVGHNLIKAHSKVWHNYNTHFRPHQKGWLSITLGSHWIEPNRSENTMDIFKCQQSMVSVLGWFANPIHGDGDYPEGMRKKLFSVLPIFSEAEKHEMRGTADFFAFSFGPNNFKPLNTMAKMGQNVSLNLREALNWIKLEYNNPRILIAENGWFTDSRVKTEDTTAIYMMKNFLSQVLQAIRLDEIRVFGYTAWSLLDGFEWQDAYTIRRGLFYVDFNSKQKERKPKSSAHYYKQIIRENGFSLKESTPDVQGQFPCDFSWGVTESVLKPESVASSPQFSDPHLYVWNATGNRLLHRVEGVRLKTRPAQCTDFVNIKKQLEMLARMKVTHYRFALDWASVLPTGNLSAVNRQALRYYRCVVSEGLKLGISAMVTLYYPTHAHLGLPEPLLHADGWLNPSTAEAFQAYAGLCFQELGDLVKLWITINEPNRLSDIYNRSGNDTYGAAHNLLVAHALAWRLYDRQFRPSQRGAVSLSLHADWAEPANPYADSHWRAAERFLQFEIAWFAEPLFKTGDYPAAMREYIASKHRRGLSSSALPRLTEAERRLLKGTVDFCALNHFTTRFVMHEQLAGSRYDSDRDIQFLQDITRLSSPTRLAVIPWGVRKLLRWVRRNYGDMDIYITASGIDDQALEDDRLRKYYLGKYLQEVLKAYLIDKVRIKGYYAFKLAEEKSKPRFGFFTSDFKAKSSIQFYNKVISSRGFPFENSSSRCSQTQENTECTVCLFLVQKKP
As to the kind of experiment: SPR, mAb captured, 37 C. The procedure, abridged:
as §1
On the technique in general: Surface plasmon resonance follows binding to a sensor surface in real time, without labels.

The target in experiment [3] is T3, human KLB and human FGFR1c co-expressed on HEK293/hKLB/hFGFR1c/SRE-luc cells (human, UniProt Q86Z14 1-1044; P11362 22-822).
T3 construct: two receptors co-expressed on one cell line; also called KLB/FGFR1c coreceptor; FGF21R
As to the kind of experiment: FACS on stable HEK293 cells. The essentials:
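Binding ratio = geom. mean fluorescence of viable antibody-stained cells divided by that of unstained cells, by flow cytometry. Cells: stable HEK293/hFGFR1c/SRE-luc (full-length human FGFR1c), with parental and KLB-expressing lines plus secondary-alone controls; staining in PBS/1% FBS.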

For experiment [4], the target named is T3, human KLB and human FGFR1c co-expressed …. Briefly: cell-based or functional assay.

B1: H2aM8098N (antibody, V domains shown)
VH: QLQLQESGPGLVKPSETLSLTCTVSGGSISSSNYYWDWIRQTPEKGLEWIGSIHYSGTSYYNPSLKSRVTISVDTSKNQFSLKLRSVTAADAAVYYCARQTSVYWYFDIWGHGTLVTVST
VL: EIVLTQSPGTLSLSPGEGATLSCRASQSVRNNYLAWYQQKPGQAPRLLIYGASSRAIGIPDRFSGSGSGTDFTLTISRLEPKDFVVYYCQQYGGSLFTFGPGTKVDIK
notes: mouse IgG2 Fc (H2aM prefix)
With B1, in experiment [1], the “180 nM hFGFR1c-V5-6His Bind (RU)” value is -1.4 RU. The “20 nM hKLB-HA-6His Bind (RU)” value in experiment [2] is 3.9 RU. In experiment [3], the “binding ratio to unstained cells” value was 23 fold. In experiment [4], the “IC50, inhibition of 1 nM hFGF21” value was 15 nM and the “Maximum Inhibition (%) of 1 nM hFGF21” value amounted to 62%.

B2: H1H8897P (antibody, V domains shown)
VH: QVQLVESGGGLVKPGGSLRLSCAAAGFTFSDYYMSWIRQAPGQGLEWVSYISPSGSTTYYADSVQGRFTISRDNAKSSLYLQMNSLRAEDTAVYYCARTGIQLWSVYFDYWGQGTLVTVSS
VL: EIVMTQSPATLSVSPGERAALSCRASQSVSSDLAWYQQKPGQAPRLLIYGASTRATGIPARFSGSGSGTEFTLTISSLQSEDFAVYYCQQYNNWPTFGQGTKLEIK
notes: H1H Fc prefix (human Fc)
With B2, the “180 nM hFGFR1c-V5-6His Bind (RU)” value in experiment [1] was determined as 0.7 RU. The “20 nM hKLB-HA-6His Bind (RU)” value in experiment [2] turned out to be 1.9 RU. The “binding ratio to unstained cells” value in experiment [3] turned out to be 8 fold. For the same molecule, in experiment [4], the “IC50, inhibition of 1 nM hFGF21” value is 0.97 nM and the “Maximum Inhibition (%) of 1 nM hFGF21” value stood at 101%.

B3: H1H8898P (antibody, V domains shown)
VH: QVQLVESGGGLVKPGGSLRLSCAASGFIFSDYYMSWIRQAPGKGLDWISYISPSGSTIYYADSVKGRFTISRDNAKNSLYLQMNSLRADDTAVYYCARTGIQLWSVYFDYWGQGTLVTVSS
VL: EIVMTQSPATLSVSPGERATLSCRASQSVGSNLAWYQQKPGQAPRLLIYGASTRANGIPARFSGSGSGTEFTLTISGLQSEDFAVYYCQQYNNWPTFGQGTKLEIK
notes: H1H Fc prefix (human Fc)
Regarding B3, in experiment [1], the “180 nM hFGFR1c-V5-6His Bind (RU)” value was 0.4 RU. For the same molecule, the “20 nM hKLB-HA-6His Bind (RU)” value in experiment [2] was -1.9 RU. The “binding ratio to unstained cells” value in experiment [3] turned out to be 8 fold. Also, in experiment [4], the “IC50, inhibition of 1 nM hFGF21” value was found to be 2 nM and the “Maximum Inhibition (%) of 1 nM hFGF21” value is 97%.

B4: H1H8900P (antibody, V domains shown)
VH: QVQLVESGGGVVQPGRSLRLSCVASGFTFSSYGMHWVRQAPGKGLEWVAVISFDGSNKYYADSVKGRFTISRDNSKNTLYLQMNSLRPADTAVYYCAKDRSNYYYFGMDVWGQGTTVTVSS
VL: DIVMTQTPLSLPVTPGEPASISCRSSQSLLDSDDGNTYLDWYLQKPGQSPQLLIYTLSYRASGVPDRFSGSGSGTDFTLKISRVEAEDVGVYYCMQRIEFPLTFGGGTKVEIK
notes: H1H Fc prefix (human Fc)
As to B4, in experiment [1], the “180 nM hFGFR1c-V5-6His Bind (RU)” value worked out at 1.6 RU. The “20 nM hKLB-HA-6His Bind (RU)” value in experiment [2] amounted to 2.6 RU. The “binding ratio to unstained cells” value in experiment [3] worked out at 6 fold. In experiment [4], the “IC50, inhibition of 1 nM hFGF21” value worked out at 4.5 nM and the “Maximum Inhibition (%) of 1 nM hFGF21” value was 41%.

B5: H4H8881P (antibody, V domains shown)
VH: QVQLVQSGAEVKKPGASVKVSCKASGYTFTSYVIHWVRQAPGQRLEWMGWSNAANGDTKYSQEFQDRVTFTRDTSASTAYMELSSLRSEDMAVYYCARWNWNYGAFDIWGQGTMVTVSS
VL: DIQMTQSPSSLSASVGDRVTITCQASQDINNYLHWYQQKSGKAPNLLIYDASILETGVPSRFSGSGSGTDFTFTISSLQPEDIATYYCQQYDNLPYTFGQGTKLEIK
notes: human IgG4 Fc (H4H prefix)
For the molecule B5, the “180 nM hFGFR1c-V5-6His Bind (RU)” value in experiment [1] was 0 RU. Besides, in experiment [2], the “20 nM hKLB-HA-6His Bind (RU)” value amounted to 101 RU, the Kd stood at 0.32 nM, the koff was found to be 0.000463 s⁻¹ and the kon amounted to 1.45e+06 M⁻¹ s⁻¹. In experiment [2], the t1/2 amounted to 24.9 min. The “binding ratio to unstained cells” value in experiment [3] amounted to 35 fold. Moreover, in experiment [4], the “IC50, inhibition of 1 nM hFGF21” value stood at 0.067 nM and the “Maximum Inhibition (%) of 1 nM hFGF21” value stood at 77%.

B6: H1H8899P (antibody, V domains shown)
VH: EVQLVESGGGLVQPGGSLRLSCAASGFTFSSHWMSWVRQAPGKGLEWVANIKQDGSEKYYVDSVKGRFTISRDNAKNSLYLQISSLRAEDTAVYYCASNWNFLFDFWGQGTLVTVSS
VL: not shown
For B6, in experiment [1], the “180 nM hFGFR1c-V5-6His Bind (RU)” value worked out at 2.8 RU. In addition, in experiment [2], the “20 nM hKLB-HA-6His Bind (RU)” value was -0.1 RU. For the same molecule, in experiment [3], the “binding ratio to unstained cells” value amounted to 4 fold. Moreover, in experiment [4], the “IC50, inhibition of 1 nM hFGF21” value stood at 0.04 nM and the “Maximum Inhibition (%) of 1 nM hFGF21” value is 20%.

In general, Kd refers to a measure of binding affinity in units of concentration. For orientation: koff means the first-order rate constant of dissociation. The low end stands for a long-lived complex, the high end for a short-lived complex. As a reminder, the kon is a measure of how fast the partners come together. Low readings indicate slow association, high ones fast association.
